# Test results as given in patent US20070009511A1 (Bristol-Myers Squibb, published 2007).
# Biological target: T1, CD86Ig (UniProt P42081 24-247)
# T1 construct: extracellular domain; Immobilized on BIAcore chips; also called soluble CD86Ig; B7-2
# Assay: SPR, CD86Ig immobilized, monomer against dimer
# T1 sequence (P42081 24-247): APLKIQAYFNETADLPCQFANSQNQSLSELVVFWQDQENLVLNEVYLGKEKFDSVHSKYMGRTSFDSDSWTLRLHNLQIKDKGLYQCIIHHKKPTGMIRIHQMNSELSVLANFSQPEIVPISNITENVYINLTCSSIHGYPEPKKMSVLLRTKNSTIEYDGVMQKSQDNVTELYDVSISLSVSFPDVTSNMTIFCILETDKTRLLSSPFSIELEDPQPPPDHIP
binder,measurement,value
"L104EA29YXC120S (receptor, also called single chain L104EA29Y extracellular domain) MHVAQPAVVLASSRGIASFVCEYASPGKYTEVRVTVLRQADSQVTEVCAATYMMGNELTFLDDSICTGTSSGNQVNLTIQGLRAMDTGLYICKVELMYPPPYYEGIGNGTQIYVIDPEPSPDSD",fold lower binding affinity than the respective dimer (L104EA29YIg),35 to 80 fold
